Measured values from patent US20150202223A1 (GENERAL HOSPITAL, published 2015).

T1: STING-HA (Sting cDNA with a C-terminal HA tag, stably expressed in p53-/- MEFs) (mouse, UniProt Q3TBT3 1-378)
T1 construct: not shown: C-terminal HA tag added by PCR
T1 sequence (looked up): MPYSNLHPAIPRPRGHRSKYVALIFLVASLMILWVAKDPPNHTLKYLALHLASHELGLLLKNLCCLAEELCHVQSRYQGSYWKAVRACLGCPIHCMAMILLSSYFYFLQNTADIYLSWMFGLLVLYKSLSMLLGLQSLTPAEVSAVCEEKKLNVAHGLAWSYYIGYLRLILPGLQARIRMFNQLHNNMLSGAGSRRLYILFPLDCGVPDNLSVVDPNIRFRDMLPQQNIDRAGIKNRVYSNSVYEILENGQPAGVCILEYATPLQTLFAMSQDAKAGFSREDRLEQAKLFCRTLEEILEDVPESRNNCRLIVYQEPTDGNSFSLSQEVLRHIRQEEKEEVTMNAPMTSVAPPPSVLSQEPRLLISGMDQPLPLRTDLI


Target: T1, STING-HA (Sting cDNA with a C-terminal …)
Experiment: anti-HA immunoprecipitation of STING-HA from MEF lysate, SILAC mass spectrometry
Description: Light (L) and heavy (H) isotope-labeled p53−/− MEFs mock infected (L) or stably expressing Sting-HA (H) were stimulated with 1000 U/mL IFNβ for 18 h. H cells were transfected with ISD for 2.5 h. Cells were lysed in 0.2% NP-40 buffer (above), and insoluble proteins were removed by centrifugation. 18 mg of each lysate was mixed with 1 ug/mL anti-HA antibody and Protein G beads (Pierce), and rotated for 2.5 h at 4° C. Beads were pelleted and washed extensively with wash buffer (above). The two samples were mixed, cysteines were reduced by DTT and alkylated with iodoacetamide, and proteins were eluted by heating in SDS sample buffer (Life Technologies) for 10 min before separation on a 4-12% gradient gel. The whole gel lane was cut into 8 slices, proteins were digested inside the gel with trypsin, and peptides were extracted from the gel as described4. Extracted peptides were purified with StageTips5 and analyzed with a 100 min acquisition method on a Thermo EASY-nLC 1000 UHPLC coupled to a Q Exactive mass spectrometer. […] All proteins were identified with at least 2 or more unique peptides and quantified with 3 or more ratios. […] To identify significant interactions, P-values were calculated via Gaussian modeling of the log(H/L) data, and proteins with P<0.05 were designated as candidates for siRNA screening.

Binder	binding result
HMGB2 (other, mouse, UniProt P30681 1-210, looked up, Endogenous protein co-precipitated from MEF lysates) MGKGDPNKPRGKMSSYAFFVQTCREEHKKKHPDSSVNFAEFSKKCSERWKTMSAKEKSKFEDLAKSDKARYDREMKNYVPPKGDKKGKKKDPNAPKRPPSAFFLFCSENRPKIKIEHPGLSIGDTAKKLGEMWSEQSAKDKQPYEQKAAKLKEKYEKDIAAYRAKGKSEAGKKGPGRPTGSKKKNEPEDEEEEEEEEEEEDDEEEEEDEE	no binding
ANP32A (other, mouse, UniProt O35381 1-247, looked up, Endogenous protein co-precipitated from MEF lysates) MEMDKRIYLELRNRTPSDVKELVLDNCKSIEGKIEGLTDEFEELEFLSTINVGLTSISNLPKLNKLKKLELSENRISGDLEVLAEKCPNLKHLNLSGNKIKDLSTIEPLKKLENLKSLDLFNCEVTNLNAYRENVFKLLPQVMYLDGYDRDNKEAPDSDVEGYVEDDDEEDEDEEEYDEYAQLVEDEEEEDEEEEGEEEDVSGEEEEDEEGYNDGEVDDEEDEEEAGEEEGSQKRKREPDDEGEEDD	no binding
